# Measured values published in paper PMC8557155 (Annals of Nuclear Medicine, 2021).
# Legend:
# [1] = design: species or system human (Japanese patients); details: in vivo
# Method: Image processing and radioactivity quantification were performed by a nuclear medicine expert at site, and dosimetry calculation was performed by the sponsor of the study. All images were taken using the Symbia T-16 SPECT/CT scanner (Siemens). The dual-headed gamma camera was equipped with a 0.952-cm (0.375-in)-thick NaI crystal and a medium-energy low penetration collimator. An energy window of ± 10% was applied around the one dominant gamma ray energies of ^177Lu (208 keV). The matrix size was 256 × 1024. […] Radioactivity quantification was performed on patient images, and the geometric mean was calculated. Regions of interests (ROIs) were drawn around the kidneys, liver, spleen, other organs, and whole body on the planar images. Tumor tissue within the organs was excluded. The absorbed dose to each organ was estimated using the OLINDA/EXM 1.0 (Vanderbilt University), a software based on the Medical Internal Radiation Dose algorithm, which is widely used for established beta and gamma emitting radionuclides. The biological effective dose (BED) for the kidneys were estimated using the SAS software, version 9.4 (SAS Institute).
# [2] = clinical; design: species or system human (Japanese patients); details: in vivo; for dose excreted: human, iv, 7.4 GBq, total radioactivity
# [3] = in vivo; cited from earlier work
smiles,measurement,setting,value
"C[C@@H](O)[C@H](NC(=O)[C@@H]1CSSC[C@H](NC(=O)[C@@H](Cc2ccccc2)NC(=O)CN2CCN(CC(=O)O)CCN(CC(=O)O)CCN(CC(=O)O)CC2)C(=O)N[C@@H](Cc2ccc(O)cc2)C(=O)N[C@H](Cc2c[nH]c3ccccc23)C(=O)N[C@@H](CCCCN)C(=O)N[C@@H]([C@@H](C)O)C(=O)N1)C(=O)O [177Lu-DOTATATE, ^177Lu-DOTA^0-Tyr^3-octreotate, metal not drawn]","BED for the kidneys for 7.4 GBq, max",[1],5.38 Gy/7.4 GBq
same,"BED for the kidneys for 7.4 GBq, mean",[1],4.25 Gy/7.4 GBq
same,"BED for the kidneys for 7.4 GBq, min",[1],3.04 Gy/7.4 GBq
same,"BED for the kidneys for 29.6 GBq, max",[1],21.5 Gy/29.6 GBq
same,"BED for the kidneys for 29.6 GBq, mean",[1],17.0 Gy/29.6 GBq
same,"BED for the kidneys for 29.6 GBq, median",[1],17.2 Gy/29.6 GBq
same,"BED for the kidneys for 29.6 GBq, min",[1],12.2 Gy/29.6 GBq
same,"BED for the kidneys, max",[1],0.727 mGy/MBq
same,"BED for the kidneys, mean",[1],0.574 mGy/MBq
same,"BED for the kidneys, median",[1],0.580 mGy/MBq
same,"BED for the kidneys, min",[1],0.411 mGy/MBq
same,Effective radioactivity in the kidney at 1 h,[1],2.39 ± 0.535%
same,Effective radioactivity in the liver at 1 h,[1],4.97 ± 2.01%
same,Effective radioactivity in the spleen at 1 h,[1],0.812 ± 0.405%
same,Fraction of the effective radioactivity retained in the whole body at 1 h,[1],71.4 ± 4.9%
same,Fraction of the effective radioactivity retained in the whole body at 4 h,[1],39.5 ± 5.7%
same,Fraction of the effective radioactivity retained in the whole body at 24 h,[1],16.0 ± 3.5%
same,Fraction of the effective radioactivity retained in the whole body at Day 6,[1],5.8 ± 1.3%
same,dose excreted,[2]; Biological cumulative urine excretion of radioactivity at 24 h after administration,71.2%
same,dose excreted,[2]; Biological cumulative urine excretion of radioactivity in the first 4 h,53.7%
same,dose excreted,[2]; Cumulative urinary excretion of radioactivity within the initial 6 h,60.1%
same,"Effective urinary radioactivity concentration, 0–1 h",[2],4.7 ± 1.9 GBq/L
same,"Effective urinary radioactivity concentration, 4–6 h",[2],1.3 ± 1.1 GBq/L
same,"Effective urinary radioactivity concentration, 6–24 h",[2],0.3 ± 0.1 GBq/L
same,"Effective urinary radioactivity concentration, 24–48 h",[2],0.07 ± 0.03 GBq/L
same,Absorbed dose to the spleen,[3],0.645 mGy/MBq
